The values that follow come from patent US6207419A, “Thrombin inhibitory agents and methods of using same” (The University of North Carolina at Chapel Hill, priority 1999, dated 2001).

Like-named read-outs stand apart in the source and are kept apart here.

For experiment [1], the system named is plasma-purified α-thrombin. Description: Thrombin inhibition with heparin before and after carboxypeptidase A digest. As to conditions: 2 hr, room temperature, FIG. 3. The class given is biochemical, human. How it is done: Forty ng of CPA was combined with approximately 1 μg of recombinant protein and incubated at room temperature. Following a 2-hr incubation at room temperature, 2 mM EDTA was added to quench CPA activity. Controls were run in which EDTA was added to the reaction prior to the addition of CPA. CPA digested proteins were then assayed according to previously mentioned procedures.

In experiment [2] the test system is thrombin. Description: Thrombin inhibition in the absence of glycosaminoglycan. The following applies: pH 7.4, mean ± S.D. Type of experiment: biochemical, human. How it is done:
All assays were performed at room temperature in 96-well microtiter plates previously coated with 2 mg/mL BSA.
(§1) Residual thrombin activity was measured with 150 μM GlyProArg-NA and 1 mg/mL pB in the absence of glycosaminoglycan, 2 mg/mL pB in the presence of heparin and 4 mg/mL in the presence of dermatan sulfate. Residual factor Xa activity was measured with 500 μM Spectrozyme FXa and 2mg/mL pB in the presence or absence of glycosaminoglycan. Residual chymotrypsin activity was measured with 150 μM AlaAlaProPhe-NA and residual trypsin activity was measured with 150 μM GlyProArg-NA.
(§2) Assays were performed at least in triplicate on two or more recombinant protein preparations.

The target in experiment [3] is T1, plasma purified α-thrombin (Homo sapiens, UniProt P00734).
T1 construct: Human α-thrombin, HCII, and ATIII were purified in our laboratory from plasma; from tissue; host or cells: human plasma (purified in the authors' laboratory)
Description: Thrombin inhibition in the presence of glycosaminoglycans (heparin or dermatan sulfate). Type of experiment: biochemical. The following applies: for maximal rate of thrombin inhibition in the presence of heparin: heparin at optimal concentration. How it is done:
(§3) Protease inhibition rates were determined as described previously (Rogers, S. J., Pratt, C. W., Whinna, H. C., and Church, F. C. (1992) J. Biol. Chem. 267(6), 3613-3617; Whinna, H. C., Choi, H. U., Rosenberg, L. C., and Church, F. C. (1993) J. Biol. Chem. 268, 3920-3924; Ciaccia, A. V., Cunningham, E. L., and Church, F. C. (1995) Protein Express. Purific. 6, 806-812; Ciaccia, A. V., Willemze, A. J., and Church, F. C. (1997) J. Biol. Chem. 272(2), 888-893). All assays were performed at room temperature in 96-well microtiter plates previously coated with 2 mg/mL BSA.
In the presence of glycosaminoglycans, 5 nM rHCII (wt, CHis6, CHis5 Pro, L444R, or L444R-CHis6) was incubated with 0.5 nM thrombin and 0-1 mg/mL heparin or 0-4 mg/mL dermatan sulfate or 10 nM rATIII (wt or CHis6) was incubated with 1 nM thrombin or factor Xa and 0-1 mg/mL heparin in the presence of 2 mg/mL BSA in HNPN, pH 7.4.
(§4) Residual thrombin activity was measured with 150 μM GlyProArg-NA and 1 mg/mL pB in the absence of glycosaminoglycan, 2 mg/mL pB in the presence of heparin and 4 mg/mL in the presence of dermatan sulfate. Residual factor Xa activity was measured with 500 μM Spectrozyme FXa and 2mg/mL pB in the presence or absence of glycosaminoglycan. Residual chymotrypsin activity was measured with 150 μM AlaAlaProPhe-NA and residual trypsin activity was measured with 150 μM GlyProArg-NA. Substrate cleavage was measured by color development at […] on a Vmax Kinetic Microplate Reader (Molecular Devices).
(§5) Assays were performed at least in triplicate on two or more recombinant protein preparations. All inhibition studies were measured under pseudo-first order conditions where inhibitor [I] is at least ten-fold higher than enzyme (protease) [E], and second-order rate constants were calculated as described previously (Ciaccia, A. V., Cunningham, E. L., and Church, F. C. (1995) Protein Express. Purific. 6, 806-812; Ciaccia, A. V., Willemze, A. J., and Church, F. C. (1997) J. Biol. Chem. 272(2), 888-893).

The test system of experiment [4] is chymotrypsin. Description: Chymotrypsin inhibition in the absence of glycosaminoglycan. Type of experiment: biochemical. As to conditions: pH 7.4, mean ± S.D. The method, then:
as §3
In the absence of glycosaminoglycan, 50-100 nM rHCII (wt, CHis6, CHis5 Pro, L444R, or L444R-CHis6) or rATIII (wt or CHis6) was incubated with 1 nM thrombin, 0.5 nM Factor Xa, 2 nM chymotrypsin, or 5 nM trypsin, in the presence of 1 mg/mL Polybrene (pB) (for thrombin and Factor Xa) and 2 mg/mL BSA in HNPN, pH 7.4.
as §4, §5

The nature of experiment [5]: Heparin-Sepharose affinity chromatography. As to conditions: NaCl gradient, 20 mM Hepes pH 7.4. The class given is binding. The method, then: 100 μL of each fraction was aliquoted onto a 96-well microtiter plate and ELISA was performed. The peak elution ionic strength was determined by plotting 405 nm color development and NaCl concentration against the fraction number. All samples were run at least in triplicate using two or more protein preparations. Recombinant ATIII samples were run similarly to the HCII samples, except the elution gradient was run from 50 mM to 2 M NaCl.

Experiment [6] concerns thrombin. Description: Plasma-based thrombin inhibition assay. Type of experiment: biochemical, human. As to conditions: 10 nM serpin. The method, then:
The assay to evaluate rHCII (wt and rHCII-CHis6) in plasma was designed based on previously published methods (Tollefsen, D. M., and Pestka, C. A. (1985) Blood 66(4), 769-774; Griffith, M. J., Carraway, T., White, G. C., and Dombrose, F. A. (1983) Blood 61(1), 111-118). All assays were performed at room temperature in 96-well microtiter plates previously coated with 2 mg/mL BSA. This assay was performed using normal hemostasis reference plasma (REF), human antithrombin III-deficient plasma (DEF), or a 50:50 mixture of these plasmas (REF/DEF). Within the assay, 10 nM rHCII or rHCII-CHis6 was incubated for 15 sec with I nM thrombin and 1 μg/mL heparin or 50 μg/mL dermatan sulfate, in the presence of a 1:100 dilution of plasma. Residual thrombin activity was measured with 300 μM GPA and 2 mg/mL pB. Substrate cleavage was measured by color development at […] on a Vmax Kinetic Microplate Reader. Second order rate constants were measured at least in triplicate on two recombinant protein preparations as described in Example 4.

For experiment [7], the target named is T2, α-thrombin (Homo sapiens, UniProt P00734).
T2 construct: Human α-thrombin, HCII, and ATIII were purified in our laboratory from plasma; from tissue; host or cells: human plasma (purified in the authors' laboratory)
Kind of experiment: Effect of hirugen on thrombin inhibition in the absence of glycosaminoglycan. Type of experiment: biochemical. The following applies: for rate constant of inhibition (k2) in the absence of peptide: no hirugen, no control peptide, FIG. 5. How it is done:
as §1, §2

Experiment [8] concerns thrombin. As to conditions: cited from earlier work.
In experiment [9] the target is T1, plasma purified α-thrombin. As to conditions: value printed with literature reference; cited from earlier work.
Setting [10] is: hirugen 20 μM, absence of glycosaminoglycan.

B1: wt-rHCII: Human wild type recombinant heparin cofactor II expressed in the baculovirus expression system (protein, UniProt P05546 20-499, looked up)
Heparin cofactor 2: GSKGPLDQLEKGGETAQSADPQWEQLNNKNLSMPLLPADFHKENTVTNDWIPEGEEDDDYLDLEKIFSEDDDYIDIVDSLSVSPTDSDVSAGNILQLFHGKSRIQRLNILNAKFAFNLYRVLKDQVNTFDNIFIAPVGISTAMGMISLGLKGETHEQVHSILHFKDFVNASSKYEITTIHNLFRKLTHRLFRRNFGYTLRSVNDLYIQKQFPILLDFKTKVREYYFAEAQIADFSDPAFISKTNNHIMKLTKGLIKDALENIDPATQMMILNCIYFKGSWVNKFPVEMTHNHNFRLNEREVVKVSMMQTKGNFLAANDQELDCDILQLEYVGGISMLIVVPHKMSGMKTLEAQLTPRVVERWQKSMTNRTREVLLPKFKLEKNYNLVESLKLMGIRMLFDKNGNMAGISDQRIAIDLFKHQGTITVNEEGTQATTVTTVGFMPLSTQVRFTVDRPFLFLIYEHRTSCLLFMGRVANPSRS
For B1, in experiment [1], the “change of heparin-dependent thrombin inhibition after CPA digest, in words” value is listed as “do not drastically change”. Moreover, the “k2 × 10^4 (M^-1 min^-1), thrombin” value in [2] is listed as 1.30 ± .19 × 10^4 (M^-1 min^-1). Moreover, the “average dermatan sulfate concentration at which the maximal rate was measured (in parentheses), thrombin” value in experiment [3] (Thrombin + dermatan sulfate, unit not printed in table (text b157: μg/mL)) came out at 500. In addition, the “average heparin concentration at which the maximal rate was measured (in parentheses), thrombin” value in experiment [3] (Thrombin + heparin, unit not printed in table (text b156: μg/mL)) is recorded as 50. Further, the “dermatan sulfate concentration at maximal rate of thrombin inhibition” value in experiment [3] (dermatan sulfate) is on record as “approximately 500 μg/mL”. Moreover, in experiment [3] (dermatan sulfate at optimal concentration), the “maximal rate of thrombin inhibition in the presence of dermatan sulfate” value is 1.52±0.31×10^9 M^-1 min^-1. Further, the “heparin concentration at maximal rate of thrombin inhibition” value in experiment [3] (heparin) was 50 to 100 µg/mL. Besides, the “maximal rate of thrombin inhibition in the presence of heparin” value in [3] was 9.29±2.8×10^8 M^-1 min^-1. Moreover, in experiment [3] (maximal rate of dermatan sulfate curve, mean ± S.D.), the “Inhibition Rate k2 × 10^8 (M^-1 min^-1), Thrombin + dermatan sulfate” value is recorded as 15.2 ± 3.1 × 10^8 (M^-1 min^-1). Moreover, in experiment [3] (maximal rate of heparin curve, mean ± S.D.), the “Inhibition Rate k2 × 10^8 (M^-1 min^-1), Thrombin + heparin” value is 9.29 ± 2.8 × 10^8 (M^-1 min^-1). Moreover, in [4], the “k2 × 10^4 (M^-1 min^-1), chymotrypsin” value is recorded as 71.0 ± 12 × 10^4 (M^-1 min^-1). In addition, the “Heparin-Sepharose [NaCl], peak elution concentration” value in experiment [5] was found to be 350 mM. For the same molecule, the “Inhibition Rate k2 × 10^8 (M^-1 min^-1), thrombin in plasma” value in experiment [6] (Dermatan Sulfate (50 μg/mL), 50:50 Mixture (REF/DEF) plasma 1:100) is given as 5.8 ± .24 × 10^8 (M^-1 min^-1); in experiment [6] (Dermatan Sulfate (50 μg/mL), ATIII Deficient (DEF) plasma 1:100), 6.5 ± .50 × 10^8 (M^-1 min^-1); in experiment [6] (Dermatan Sulfate (50 μg/mL), Normal Reference (REF) plasma 1:100), 5.7 ± .45 × 10^8 (M^-1 min^-1); in experiment [6] (Heparin (1 μg/mL), 50:50 Mixture (REF/DEF) plasma 1:100), 1.9 ± .050 × 10^8 (M^-1 min^-1); in experiment [6] (Heparin (1 μg/mL), ATIII Deficient (DEF) plasma 1:100), “.26 ± .050 × 10^8 (M^-1 min^-1)”; in experiment [6] (Heparin (1 μg/mL), Normal Reference (REF) plasma 1:100), 22 ± .17 × 10^8 (M^-1 min^-1). In addition, the “reduction of rate of thrombin inhibition by hirugen” value in experiment [7] (setting [10]) is recorded as more than 50%. In addition, the “rate constant of inhibition (k2) in the absence of peptide” value in experiment [7] is 253 M⁻¹ s⁻¹.

B2: rHCII-L444R: Recombinant HCII with mutation at the reactive site residue P1 (L444R) (protein, UniProt P05546 20-499, looked up, variant L444R)
Heparin cofactor 2: GSKGPLDQLEKGGETAQSADPQWEQLNNKNLSMPLLPADFHKENTVTNDWIPEGEEDDDYLDLEKIFSEDDDYIDIVDSLSVSPTDSDVSAGNILQLFHGKSRIQRLNILNAKFAFNLYRVLKDQVNTFDNIFIAPVGISTAMGMISLGLKGETHEQVHSILHFKDFVNASSKYEITTIHNLFRKLTHRLFRRNFGYTLRSVNDLYIQKQFPILLDFKTKVREYYFAEAQIADFSDPAFISKTNNHIMKLTKGLIKDALENIDPATQMMILNCIYFKGSWVNKFPVEMTHNHNFRLNEREVVKVSMMQTKGNFLAANDQELDCDILQLEYVGGISMLIVVPHKMSGMKTLEAQLTPRVVERWQKSMTNRTREVLLPKFKLEKNYNLVESLKLMGIRMLFDKNGNMAGISDQRIAIDLFKHQGTITVNEEGTQATTVTTVGFMPRSTQVRFTVDRPFLFLIYEHRTSCLLFMGRVANPSRS
As for B2, the “increase of the rate of thrombin inhibition compared to wt-rHCII” value in experiment [8] (absence of glycosaminoglycan, earlier publications) is listed as ~2 orders of magnitude. Moreover, in experiment [8] (value printed with literature reference), the “rate of thrombin inhibition in the absence of glycosaminoglycan” value was 1.3±0.30×10^6 M^-1 min^-1. The “maximal rate of thrombin inhibition in the presence of heparin” value in [3] is recorded as 1.93±0.38×10^8 M^-1 min^-1. The “maximal rate of thrombin inhibition in the presence of dermatan sulfate” value in experiment [9] was 2.84±0.24×10^6 M^-1 min^-1. Besides, the “Heparin-Sepharose [NaCl], peak elution concentration” value in [5] is 350 mM. Further, the “effect of hirugen on thrombin inhibition, in words” value in [7] (setting [10]) is “less of an effect”. Moreover, the “rate constant of inhibition (k2) in the absence of peptide” value in [7] came to 31200 M⁻¹ s⁻¹.
